Measured values taken from PMC3378519, “Contribution of DEAF1 Structural Domains to the Interaction with the Breast Cancer Oncogene LMO4” (PLoS ONE, 2012).

B1: MBP-fused DEAF1_(335–485), recombinant (domain or fragment, mouse, UniProt Q9Z1T5-1 335-485, looked up)
chain: TVTPSGQITTSGALTFDRASTVEATAVISESPAQGDVFAGATVQEAGVQPPCRVGHPEPHYPGYQDSCQIAPFPEAALPTSHPKIVLTSLPALAVPPSTPTKAVSPTVVSGLEMSEHRSWLYLEEMVNSLLNTAQQLKTLFEQAKQASSCR
notes: DEAF1, mouse, NM_016874; pMALC2 construct; not shown: MBP, N-terminal, kept
B2: DEAF1_(404–479), recombinant protein for SEC-MALLS (domain or fragment, mouse, UniProt Q9Z1T5-1 404-479, looked up)
chain: IAPFPEAALPTSHPKIVLTSLPALAVPPSTPTKAVSPTVVSGLEMSEHRSWLYLEEMVNSLLNTAQQLKTLFEQAK
notes: DEAF1, mouse, NM_016874; source: recombinant
B3: MBP-fused full length DEAF1, recombinant (natural protein, mouse, UniProt Q9Z1T5-1 1-566, looked up)
chain: MEDSDSAAKQLGLAEAAAVAAAAAVAAAAAAAAESEAEEPVLSRDEDSEEDADSEAERETRRVTAVAVMAAESGHMDMGTEALPSPDEAAAAAAAFAEVTTVTVANVGSSADNVFTTSVANAASISGHVLSGRTALQIGDSLNTEKATLIVVHTDGSIVETTGLKGPAAPLTPGPQSPPTPLAPGQEKGGTKYNWDPSVYDSELPVRCRNISGTLYKSRLGSGGRGRCIKQGENWYSPTEFEAMAGRASSKDWKRSIRYAGRPLQCLIQDGILNPHAASCTCAACCDDMTLSGPVRLFVPYKRRKKENELPTTPVKKDSPKNITLLPATAATTFTVTPSGQITTSGALTFDRASTVEATAVISESPAQGDVFAGATVQEAGVQPPCRVGHPEPHYPGYQDSCQIAPFPEAALPTSHPKIVLTSLPALAVPPSTPTKAVSPTVVSGLEMSEHRSWLYLEEMVNSLLNTAQQLKTLFEQAKQASSCREAAVTQARMQVDTERKEQSCVNCGREAMSECTGCHKVNYCSTFCQRKDWKDHQHVCGQSASVTVQADDVHVEESVIEKVAV
notes: DEAF1, mouse, NM_016874, full length; pMALC2 construct; about 10 subunits by SEC-MALLS, mixture of species; not shown: MBP, N-terminal, kept
B4: GB1-tagged DEAF1_(454–487), isolated coiled coil, recombinant (domain or fragment, mouse, UniProt Q9Z1T5-1 454-487, looked up)
chain: WLYLEEMVNSLLNTAQQLKTLFEQAKQASSCREA
notes: DEAF1, mouse, NM_016874; source: E. coli Rosetta 2, purified (DEAE sepharose, Ni-NTA); not shown: His6, N-terminal, kept; GB1 (Gβ-1 domain of streptococcal protein G), N-terminal, kept

Target: the molecule itself
Experiment: SEC-MALS; SEC-MALLS; about 200 µg of protein on a Superose 12 column with in-line MALLS detector; weight-averaged molecular weight in solution

| Protein | stoichiometry N | binding result |
| --- | --- | --- |
| B1 | 4 subunits |  |
| B2 |  | binds |
| B3 | ~10 subunits |  |
| B4 | 4 subunits |  |
